# Results reported in PMC12360793 (2025).
# Where two headings read alike, the source gives them in different places.
# B1: dimeric P.nat ACE2 ectodomain (residues 17–729, avi-His8) (domain or fragment)
# chain: AQSLTTEEKAREFLDKFNSEAENWSHESALASWDYNTNINDKNAQKMNEADSKWSAFYKEHSKLAQGFPLQEIQNSTIKLQLQILQQNGSSVLTAEKSKRLSTILTTMSTIYSTGKVCNPNNPQQCFTLSGLEDIMEKSKDYHQRLWIWEGWRSEVGKQLRPLYEEYVALKNEMARGNNYKDYGDYWRGDYETEGGDGYNYSRNHLIEDVDRIFLEIKPLYEQLHAYVRAKLMNAYPSRISPTGCLPAHLLGDMWGRFWTNLYNLTVPFEKKQNIDVTDTMKKQSWDAEKIFKEAEKFYLSVGLHNMTPEFWNNSMLTEPSDGRQVVCHPTAWDLGKNDFRIKMCTKVTMDDFLTAHHEMGHIQYDMAYAKQPYLLRNGANEGFHEAVGEVMSLSVATPKHLKGMGLLPSNFSEDCETEINFLLKQALNIVGTLPFTYMLEKWRWMVFEGKIPKEQWMEKWWEMKREIVGVVEPLPHDETYCDPASLFHVANDYSFIRYFTRTILEFQFQEALCQIANHTGPLHKCDISNSTEAGKQLKNMLELGKSKPWTFALEQIARTKEMDAKPLLNYFKPLFSWLKEQNGNSVGWSADWSPYSEQSIKVRISLKSALGEKAYEWNDNEMYLFRSSVAYAMRVYFLKVKNETIPFRAEDVWVSDEKIRVSFKFFVTSPTNVSDIIPRSEVEDAIRMSRGRINDAFRLDDKTLEFLGIQPT
# B2: monomeric P.dav ACE2 ectodomain (residues 17–613, avi-His8) (domain or fragment)
# chain: AQSTTEELAKTFLEKFNHEAEELSYQSSLASWNYNTNITDENVQKMNEAGAKWSAFYEEQSKLAKTYPLAEIHNTTVKRQLQALQQSGSSVLSADKSQRLNTILNAMSTIYSTGKACNPNNPQECLLLEPGLDDIMENSKDYNERLWAWEGWRAEVGKQLRPLYEEYVALKNEMARANNYEDYGDYWRGDYEEEWTDGYNYSRSQLIKDVEHTFTQIKPLYQHLHAYVRAKLMDTYPSRISPTGCLPAHLLGDMWGRFWTNLYPLTVPFGQKPNIDVTDAMVNQSWDARRIFKEAEKFFVSVGLPNMTQGFWENSMLTEPGDSRKVVCHPTAWDLGKGDFRIKMCTKVTMDDFLTAHHEMGHIQYDMAYAVQPFLLRNGANEGFHEAVGEIMSLSAATPNHLKTIGLLSPGFSEDSETEINFLLKQALTIVGTLPFTYMLEKWRWMVFKGEIPKEQWMQKWWEMKREIVGVVEPVPHDETYCDPASLFHVANDYSFIRYYTRTIYQFQFQEALCRIAKHEGPLHKCDISNSSEAGKKLLQMLTLGKSKPWTLALEHVVGEKKMNVTPLLKYFEPLFTWLKEQNRNSFVGWNTDWRPY
# B3: soluble dimeric P.nat ACE2 ectodomain (residues 18–739, twin-strep-3×FLAG) (domain or fragment)
# chain: QSLTTEEKAREFLDKFNSEAENWSHESALASWDYNTNINDKNAQKMNEADSKWSAFYKEHSKLAQGFPLQEIQNSTIKLQLQILQQNGSSVLTAEKSKRLSTILTTMSTIYSTGKVCNPNNPQQCFTLSGLEDIMEKSKDYHQRLWIWEGWRSEVGKQLRPLYEEYVALKNEMARGNNYKDYGDYWRGDYETEGGDGYNYSRNHLIEDVDRIFLEIKPLYEQLHAYVRAKLMNAYPSRISPTGCLPAHLLGDMWGRFWTNLYNLTVPFEKKQNIDVTDTMKKQSWDAEKIFKEAEKFYLSVGLHNMTPEFWNNSMLTEPSDGRQVVCHPTAWDLGKNDFRIKMCTKVTMDDFLTAHHEMGHIQYDMAYAKQPYLLRNGANEGFHEAVGEVMSLSVATPKHLKGMGLLPSNFSEDCETEINFLLKQALNIVGTLPFTYMLEKWRWMVFEGKIPKEQWMEKWWEMKREIVGVVEPLPHDETYCDPASLFHVANDYSFIRYFTRTILEFQFQEALCQIANHTGPLHKCDISNSTEAGKQLKNMLELGKSKPWTFALEQIARTKEMDAKPLLNYFKPLFSWLKEQNGNSVGWSADWSPYSEQSIKVRISLKSALGEKAYEWNDNEMYLFRSSVAYAMRVYFLKVKNETIPFRAEDVWVSDEKIRVSFKFFVTSPTNVSDIIPRSEVEDAIRMSRGRINDAFRLDDKTLEFLGIQPTLGPPYQPPVT
# B4: soluble dimeric P.nat.M1 ACE2 ectodomain (twin-strep-3×FLAG) (domain or fragment)
# chain: QSLTTEEKAREFLDKFNSEAENWSHESALASWDYNTNINDKNAQKMNEADSKWSAFYKEHSKLAQGFPLQEIQNSTIKLQLQILQQNGSSVLTAEKSKRLSTILTTMSTIYSTGKVCNPNNPQQCFTLSGLEDIMEKSKDYHQRLWIWEGWRSEVGKQLRPLYEEYVALKNEMARGNNYKDYGDYWRGDYETEGGDGYNYSRNHLIEDVDRIFLEIKPLYEQLHAYVRAKLMNAYPSRISPTGCLPAHLLGDMWGRFWTNLYNLTVPFEKKQNIDVTDTMKKQSWDAEKIFKEAEKFYLSVGLHNMTPEFWNNSMLTEPSDGRQVVCHPTAWDLGKNDFRIKMCTKVTMDDFLTAHHEMGHIQYDMAYAKQPYLLRNGANEGFHEAVGEIMSLSAATPKHLKDLGLLAQNYPEDYETEINFLLKQALNIVGTLPFTYMLEKWRWMVFEGKIPKEQWMEKWWEMKREIVGVVEPLPHDETYCDPASLFHVANDYSFIRYFTRTILEFQFQEALCQIANHTGPLHKCDISNSTEAGKQLKNMLELGKSKPWTFALEQIARTKEMDAKPLLNYFKPLFSWLKEQNGNSVGWSADWSPYSEQSIKVRISLKSALGEKAYEWNDNEMYLFRSSVAYAMRVYFLKVKNETIPFRAEDVWVSDEKIRVSFKFFVTSPTNVSDIIPRSEVEDAIRMSRGRINDAFRLDDKTLEFLGIQPTLGPPYQPPVT
# B5: dimeric P.dav ACE2 ectodomain (residues 17–728, avi-His8) (domain or fragment)
# chain: AQSTTEELAKTFLEKFNHEAEELSYQSSLASWNYNTNITDENVQKMNEAGAKWSAFYEEQSKLAKTYPLAEIHNTTVKRQLQALQQSGSSVLSADKSQRLNTILNAMSTIYSTGKACNPNNPQECLLLEPGLDDIMENSKDYNERLWAWEGWRAEVGKQLRPLYEEYVALKNEMARANNYEDYGDYWRGDYEEEWTDGYNYSRSQLIKDVEHTFTQIKPLYQHLHAYVRAKLMDTYPSRISPTGCLPAHLLGDMWGRFWTNLYPLTVPFGQKPNIDVTDAMVNQSWDARRIFKEAEKFFVSVGLPNMTQGFWENSMLTEPGDSRKVVCHPTAWDLGKGDFRIKMCTKVTMDDFLTAHHEMGHIQYDMAYAVQPFLLRNGANEGFHEAVGEIMSLSAATPNHLKTIGLLSPGFSEDSETEINFLLKQALTIVGTLPFTYMLEKWRWMVFKGEIPKEQWMQKWWEMKREIVGVVEPVPHDETYCDPASLFHVANDYSFIRYYTRTIYQFQFQEALCRIAKHEGPLHKCDISNSSEAGKKLLQMLTLGKSKPWTLALEHVVGEKKMNVTPLLKYFEPLFTWLKEQNRNSFVGWNTDWRPYADQSIKVRISLKSALGDEAYEWNDNEMYLFRSSVAYAMREYFSKVKNQTIPFVEDNVWVSNLKPRISFNFFVTASKNVSDVIPRSEVEEAIRMSRSRINDAFRLDDNSLEFLGIQ
# Columns and labels:
# Test in all cases: BLI
# [1] = target: T1, biotinylated monomeric MOW15–22 RBD (MOW15–22 (bat MERSr-CoV sampled in …))
# [2] = target: T1, biotinylated monomeric MOW15–22 RBD; remark: listed apart in the source
# [3] = target: T2, PnNL2018B S1-hFc (PnNL2018B (bat MERSr-CoV sampled in …))
# [4] = target: T2, PnNL2018B S1-hFc; remark: listed apart in the source
binder,measurement,setting,value
B1,koff,[1],0.000301 s⁻¹
B2,koff,[2],0.0567 s⁻¹
B3,Kd,[3],0.183 µM
same,koff,[3],0.00727 s⁻¹
B4,Kd,[4],0.0169 µM
same,koff,[4],0.00179 s⁻¹
B5,koff,[2],0.000712 s⁻¹
